Experimental data published in the Human Domainome abundance scans (Beltran et al. 2025).
± gives the uncertainty stated by the source.

B1: Androgen receptor, residues 557 to 632; numbered along this chain, P10275 (parent)
chain: QKTCLICGDEASGCHYGALTCGSCKVFFKRAAEGKQKYLCASRNDCTIDKFRRKNCPSCRLRKCYEAGMTLGARKL

Variants of: B1
Experiment: abundance fitness (aPCA) (normalised: wild type 0, dead -1); higher = more abundant; growth selection in yeast, the domain comes from the species named
Settings: Homo sapiens

| Variant | abundance fitness |
| --- | --- |
| R52S | -0.087 ± 0.051 |
| R52Q | -0.063 ± 0.1 |
| R52E | -0.003 ± 0.091 |
| C14N | -0.351 ± 0.26 |
| C14H | -0.035 ± 0.12 |
| C14D | 0.081 ± 0.11 |
| C4W | -0.964 ± 0.36 |
| C4L | -0.745 ± 0.35 |
| C4H | -0.851 ± 0.4 |
| V26S | 0.038 ± 0.035 |
| V26L | 0.008 ± 0.033 |
| V26K | 0.058 ± 0.037 |
| V26M | 0.053 ± 0.042 |
| V26I | 0.013 ± 0.051 |
| V26T | -0.002 ± 0.04 |
| Y16T | -0.445 ± 0.044 |
| Y16C | -0.566 ± 0.081 |
| Y16G | -0.432 ± 0.034 |
| Y16K | -0.473 ± 0.08 |
| K35E | 0.084 ± 0.058 |
| C46R | -0.892 ± 0.073 |

| Variant | abundance fitness |
| --- | --- |
| C46Y | -1.06 ± 0.19 |
| C46T | -0.713 ± 0.085 |
| C46H | -0.38 ± 0.083 |
| C24V | -0.907 ± 0.048 |
| C24M | -0.964 ± 0.075 |
| K63D | -0.283 ± 0.15 |
| K63M | -0.133 ± 0.1 |
| K63R | -0.079 ± 0.071 |
| K63G | -0.4 ± 0.16 |
| F27R | -0.977 ± 0.067 |
| F27Y | -0.598 ± 0.068 |
| F27K | -0.816 ± 0.072 |
| F27S | -0.983 ± 0.071 |
| F27A | -0.729 ± 0.052 |
| N55M | 0.216 ± 0.11 |
| N55Q | -0.076 ± 0.081 |
| N55L | -0.022 ± 0.054 |
| D45W | -0.465 ± 0.25 |
| D45G | -0.162 ± 0.056 |
| Q36G | 0.011 ± 0.056 |
| Q36P | -0.006 ± 0.052 |

| Variant | abundance fitness |
| --- | --- |
| Q36V | 0.065 ± 0.043 |
| Q36H | -0.01 ± 0.065 |
| Q36E | 0.031 ± 0.063 |
| S12E | 0.047 ± 0.054 |
| S12P | -0.077 ± 0.19 |
| S12C | -0.305 ± 0.15 |
| S12T | -0.149 ± 0.087 |
| S12I | -0.091 ± 0.12 |
| Y38K | -0.085 ± 0.099 |
| Y38T | -0.179 ± 0.08 |
| Y38M | -0.036 ± 0.09 |
| Y38S | -0.116 ± 0.061 |
| C56T | -0.562 ± 0.16 |
| C56K | -0.848 ± 0.37 |
| C56W | -0.964 ± 0.47 |
| C56N | -0.968 ± 0.24 |
| C56G | -1.05 ± 0.29 |
| A73L | -0.176 ± 0.073 |
| A73S | 0 ± 0.084 |
| A73D | -0.026 ± 0.07 |
| A73T | -0.205 ± 0.27 |

| Variant | abundance fitness |
| --- | --- |
| L5P | -0.296 ± 0.071 |
| L5R | -0.105 ± 0.046 |
| L5V | -0.145 ± 0.044 |
| L5Q | -0.113 ± 0.07 |
| L39V | 0.029 ± 0.031 |
| C7S | -0.615 ± 0.17 |
| Q1I | 0.198 ± 0.15 |
| Q1L | -0.027 ± 0.086 |
| Q1R | -0.228 ± 0.066 |
| R30H | 0.114 ± 0.074 |
| R30K | 0.103 ± 0.087 |
| A41N | -0.165 ± 0.083 |
| A41V | 0.01 ± 0.061 |
| N44I | -0.433 ± 0.21 |
| N44W | -0.344 ± 0.061 |
| N44Y | -0.274 ± 0.15 |
| N44F | -0.158 ± 0.16 |
| N44S | -0.076 ± 0.062 |
| G8Y | 0.036 ± 0.19 |
| G8N | -0.29 ± 0.25 |
